Measurements: PMC7702303, “Biochemical and transcript level differences between the three human phosphofructokinases show optimisation of each isoform for specific metabolic niches” (Biochemical Journal, 2020)
“And” between values parts separate entries of the source, which are not always exact repeats. Equal values may be shown once.

B1: human 6-phosphofructokinase-1-kinase, platelet isoform (PFK-P) (enzyme, UniProt Q01813 1-784, looked up)
chain: MDADDSRAPKGSLRKFLEHLSGAGKAIGVLTSGGDAQGMNAAVRAVVRMGIYVGAKVYFIYEGYQGMVDGGSNIAEADWESVSSILQVGGTIIGSARCQAFRTREGRLKAACNLLQRGITNLCVIGGDGSLTGANLFRKEWSGLLEELARNGQIDKEAVQKYAYLNVVGMVGSIDNDFCGTDMTIGTDSALHRIIEVVDAIMTTAQSHQRTFVLEVMGRHCGYLALVSALACGADWVFLPESPPEEGWEEQMCVKLSENRARKKRLNIIIVAEGAIDTQNKPITSEKIKELVVTQLGYDTRVTILGHVQRGGTPSAFDRILASRMGVEAVIALLEATPDTPACVVSLNGNHAVRLPLMECVQMTQDVQKAMDERRFQDAVRLRGRSFAGNLNTYKRLAIKLPDDQIPKTNCNVAVINVGAPAAGMNAAVRSAVRVGIADGHRMLAIYDGFDGFAKGQIKEIGWTDVGGWTGQGGSILGTKRVLPGKYLEEIATQMRTHSINALLIIGGFEAYLGLLELSAAREKHEEFCVPMVMVPATVSNNVPGSDFSIGADTALNTITDTCDRIKQSASGTKRRVFIIETMGGYCGYLANMGGLAAGADAAYIFEEPFDIRDLQSNVEHLTEKMKTTIQRGLVLRNESCSENYTTDFIYQLYSEEGKGVFDCRKNVLGHMQQGGAPSPFDRNFGTKISARAMEWITAKLKEARGRGKKFTTDDSICVLGISKRNVIFQPVAELKKQTDFEHRIPKEQWWLKLRPLMKILAKYKASYDVSDSGQLEHVQPWSV
notes: human phosphofructokinase, platelet isoform (PFK-P), recombinant; Active form is a tetramer in equilibrium with dimers
B2: human 6-phosphofructokinase-1-kinase, muscle isoform (PFK-M) (enzyme, UniProt P08237 1-780, looked up)
chain: MTHEEHHAAKTLGIGKAIAVLTSGGDAQGMNAAVRAVVRVGIFTGARVFFVHEGYQGLVDGGDHIKEATWESVSMMLQLGGTVIGSARCKDFREREGRLRAAYNLVKRGITNLCVIGGDGSLTGADTFRSEWSDLLSDLQKAGKITDEEATKSSYLNIVGLVGSIDNDFCGTDMTIGTDSALHRIMEIVDAITTTAQSHQRTFVLEVMGRHCGYLALVTSLSCGADWVFIPECPPDDDWEEHLCRRLSETRTRGSRLNIIIVAEGAIDKNGKPITSEDIKNLVVKRLGYDTRVTVLGHVQRGGTPSAFDRILGSRMGVEAVMALLEGTPDTPACVVSLSGNQAVRLPLMECVQVTKDVTKAMDEKKFDEALKLRGRSFMNNWEVYKLLAHVRPPVSKSGSHTVAVMNVGAPAAGMNAAVRSTVRIGLIQGNRVLVVHDGFEGLAKGQIEEAGWSYVGGWTGQGGSKLGTKRTLPKKSFEQISANITKFNIQGLVIIGGFEAYTGGLELMEGRKQFDELCIPFVVIPATVSNNVPGSDFSVGADTALNTICTTCDRIKQSAAGTKRRVFIIETMGGYCGYLATMAGLAAGADAAYIFEEPFTIRDLQANVEHLVQKMKTTVKRGLVLRNEKCNENYTTDFIFNLYSEEGKGIFDSRKNVLGHMQQGGSPTPFDRNFATKMGAKAMNWMSGKIKESYRNGRIFANTPDSGCVLGMRKRALVFQPVAELKDQTDFEHRIPKEQWWLKLRPILKILAKYEIDLDTSDHAHLEHITRKRSGEAAV
notes: human phosphofructokinase, muscle isoform (PFK-M), recombinant; Active form is a tetramer in equilibrium with dimers
B3: human 6-phosphofructokinase-1-kinase, liver isoform (PFK-L) (enzyme, UniProt P17858 1-780, looked up)
chain: MAAVDLEKLRASGAGKAIGVLTSGGDAQGMNAAVRAVTRMGIYVGAKVFLIYEGYEGLVEGGENIKQANWLSVSNIIQLGGTIIGSARCKAFTTREGRRAAAYNLVQHGITNLCVIGGDGSLTGANIFRSEWGSLLEELVAEGKISETTARTYSHLNIAGLVGSIDNDFCGTDMTIGTDSALHRIMEVIDAITTTAQSHQRTFVLEVMGRHCGYLALVSALASGADWLFIPEAPPEDGWENFMCERLGETRSRGSRLNIIIIAEGAIDRNGKPISSSYVKDLVVQRLGFDTRVTVLGHVQRGGTPSAFDRILSSKMGMEAVMALLEATPDTPACVVTLSGNQSVRLPLMECVQMTKEVQKAMDDKRFDEATQLRGGSFENNWNIYKLLAHQKPPKEKSNFSLAILNVGAPAAGMNAAVRSAVRTGISHGHTVYVVHDGFEGLAKGQVQEVGWHDVAGWLGRGGSMLGTKRTLPKGQLESIVENIRIYGIHALLVVGGFEAYEGVLQLVEARGRYEELCIVMCVIPATISNNVPGTDFSLGSDTAVNAAMESCDRIKQSASGTKRRVFIVETMGGYCGYLATVTGIAVGADAAYVFEDPFNIHDLKVNVEHMTEKMKTDIQRGLVLRNEKCHDYYTTEFLYNLYSSEGKGVFDCRTNVLGHLQQGGAPTPFDRNYGTKLGVKAMLWLSEKLREVYRKGRVFANAPDSACVIGLKKKAVAFSPVTELKKDTDFEHRMPREQWWLSLRLMLKMLAQYRISMAAYVSGELEHVTRRTLSMDKGF
notes: human phosphofructokinase, liver isoform (PFK-L), recombinant; Active form is a tetramer in equilibrium with dimers

How the values were obtained:
[1] = substrate: O=C(CO)[C@@H](O)[C@H](O)[C@H](O)COP(=O)(O)O; assay: ALDO-TIM-G3PDH enzyme-linked kinetic assay, PFK-P; type: biochemical, human; settings: other: PFK-P; F6P titration, ATP 0.5 mM; n = 6; mean (SD); pH 7.4; 25.0 °C
Protocol: (§1) Recombinant human PFKs were expressed in PFK-deficient Saccharomyces cerevisiae and purified using the methods described previously, adapting earlier materials and protocols. Production of PFK intended for use in ATP titration experiments used 1 mM F6P as a tetramer stabilising agent in protein purification and storage buffers. Production of PFK intended for use in F6P titration experiments used 1 mM ATP as a tetramer stabilising agent in protein purification and storage buffers. Experimental details on the purification and characterisation procedures including figures showing SDS–PAGE gels of the highly pure PFKs used in the kinetic experiments described in this work have been recently published.
(§2) Assay buffer consisted of 50 mM TEA, 100 mM KCl, 10 mM MgCl2, 1 mM Tris(2-carboxyethyl)phosphine hydrochloride (TCEP), 10% glycerol, pH 7.4. Assay mix consisted of 5 units/ml glycerol-3-phosphate dehydrogenase (G3PDH, Sigma–Aldrich G6880), 2.5 units/ml aldolase (Sigma–Aldrich A2714), 25 units/ml triosephosphate isomerase (TIM, Sigma–Aldrich T6258), and 1.25 mM NADH. […] A SpectraMax M5 Multi-Mode Microplate Reader was used to measure A340nm at 13 s intervals for 10 min. […]
(§3) Time-dependent absorbance change was converted into rate of NADH oxidation (µM s^−1) or specific activity (µmol min^−1 mg protein^−1) using the Beer-Lambert law (molar extinction coefficient of NADH 6.22 mM^−1 cm^−1). […]

[2] = target: the molecule itself; assay: SEC; size-exclusion chromatography of purified recombinant PFK isoforms, buffer and protein concentration not told in the main text (Supplementary Figure S2); tetramer to dimers
[3] = substrate: O=C(CO)[C@@H](O)[C@H](O)[C@H](O)COP(=O)(O)O; assay: ALDO-TIM-G3PDH enzyme-linked kinetic assay, PFK-M; type: biochemical, human; settings: other: PFK-M; F6P titration, ATP 0.5 mM; n = 6; mean (SD); pH 7.4; 25.0 °C
Protocol: as §1, §2, §3

[4] = substrate: O=C(CO)[C@@H](O)[C@H](O)[C@H](O)COP(=O)(O)O; assay: ALDO-TIM-G3PDH enzyme-linked kinetic assay, PFK-L; type: biochemical, human; settings: other: PFK-L; F6P titration, ATP 0.5 mM; n = 6; mean (SD); pH 7.4; 25.0 °C
Protocol: as §1, §2, §3

| Protein | kcat [1] [s⁻¹] | stoichiometry N [2] | kcat [3] [s⁻¹] | kcat [4] [s⁻¹] | binding result [2] |
| --- | --- | --- | --- | --- | --- |
| B1 | 1.83 | 4 and 2 | – | – | – |
| B2 | – | 4 | 8.11 | – | – |
| B3 | – | – | – | 5.38 | binds |
